Laboratory results taken from patent publication EP4585618A1 (Jiangsu Hengrui Pharmaceuticals Co., Ltd., dated 2025).

B1: humanized antibody huP2-G9 (antibody, human IgG1, kappa, L234A L235A, V domains shown)
VH: EVQLQESGPGLVKPSQTLSLTCTVSGSSITSGYYWNWIRQHPGKGLEWIGYLSYDGSNNYNPSLKNLVTISRDTSKNQFSLKLSSVTAADTAVYYCAREGAHYSGTLSWFAYWGQGTLVTVSS
VL: DIQMTQSPSSLSASVGDRVTITCRASENIYSNLAWYQQKPGKSPKLLVYAATNLADGVPSRFSGSGSGTDYTLTISSLQPEDFATYYCQHFWDTPYTFGGGTKVEIKR
notes: Full chains; also called P2-G9H1L2
B2: humanized antibody huP2-C6 (antibody, human IgG1, kappa, L234A L235A, V domains shown)
VH: EVQLVQSGAEVKKPGASVKVSCKASGYTFTDYYIHWVRQAPGQGLEWMGYIYPDTGYSGYNQKFKGRVTMTVDKSTSTAYMELRSLRSDDTAVYYCTRRGDYSGVHFDYWGQGTTVTVSS
VL: DIVLTQSPDSLAVSLGERATINCRASESVNNYGVGFLHWYQQKPGQPPKLLIYRASTLESGIPDRFSGSGSGTDFTLTISSLQAEDVAVYYCQHSYKDPPWTFGGGTKVEIKR
notes: Full chains; also called P2-C6H7L1
B3: humanized antibody huP2-E8 (antibody, human IgG4 S228P, kappa, F234A L235A, V domains shown)
VH: EVQLVESGGGLVKPGGSLRLSCAASGFTFSDYGIHWVRQAPGKGLEWVAYISSGSSIHNYADTVKGRFTISRDNAKNSLYLQMNSLRAEDTAVYYCARGPNYYGSSYLLVYWGQGTLVTVSS
VL: DIQMTQSPSSLSASVGDRVTITCKASQDVNIAVAWYQQKPGKAPKLLIYSASYRYTGVPSRFSGSGSGTDFTFTISSLQPEDIATYYCQQHYNIPWTFGGGTKVEIKR
notes: Full chains; also called P2-E8H4L1
B4: fully human-derived antibody P2m (antibody, human IgG1, kappa, L234A L235A, V domains shown)
VH: QVQLVQSGAEVKKPGSSVKVSCKASGYTFTSYDISWVRQAPGQGLEWMGGIIPIFGTANYAQKFQGRVTITADESTSTAYMELSSLRSEDTAVYYCTAGIFLATAYWGQGTLVTVSS
VL: DIQMTQSPSSMSASVGDRVTISCQASQDIQNYLNWYQQRPGQAPKLLIYDASTLETGVPSRFSGSGSGTYFTLTISSLQPEDVATYYCQQYENVPITFGQGTRLEIKR
notes: Full chains
B5: chimeric antibody ChP1-C4 (antibody, human IgG4 S228P, kappa, F234A L235A, V domains shown)
VH: QVQLKQSGAELVRPGASVKLSCKASGYSFTDYYINWVKQRPGQGLEWIARIYPGNDNTYYNEKFKDKATLTADSSSSTAYMQLSSLTSEDSAVYFCTRSQDGYYEENAMDYWGQGTSVTVSS
VL: DIQMTQSPASLSVSVGETVTITCRASENIYSNLAWYQQRQGKSPQLLVYAATNLADGVPFRFSGSGSGTQYSLKINSLQSEDFGSYYCQQFWGSPHTFGGGTKLEIKR
notes: Murine variable regions with hIgG4(LALA) and CL constant regions; also called M P1-C4
B6: chimeric antibody ChP1-D7 (antibody, human IgG4 S228P, kappa, F234A L235A, V domains shown)
VH: QIQLVQSGPDLKKPGETVKISCKASGYTFTTYGMNWVKQAPGKALKWMGWINTYSGVPTYADDFKGRFAFSLETSATTAYLQINNLKNEDTATYFCARRTDYDGYVMDCWGQGTSVTVSS
VL: DIVMSQSPSSLAVSIGEKVTMSCKSSQSLFYSGNQKNYLAWYLQKPGQSPKLLLYWASTRESGVPDRFTGSGSGTDFTLTISSVMAEDLAVYYCQQYFSYPPTFGGGTKLEIKR
notes: Murine variable regions with hIgG4(LALA) and CL constant regions; also called M P1-D7

How the values were obtained:
[1] = target: T1, His-tagged ILT4 protein extracellular domain: ILT4-His (human, UniProt Q8N423 22-460); assay: SPR (Biacore), antibody captured on Protein A chip, ILT4-His as analyte, 1:1 model
T1 construct: Expressed in 293 cells; also called human ILT4-His protein

[2] = target: T2, full-length human ILT4 protein overexpressed on cells (human, UniProt Q8N423 22-597); assay: flow cytometry competition on CHO-S/ILT4 cells; competitor CF647-labelled HLA-G tetramer; Assay 2
T2 construct: also called CHO-S/ILT4; ILT4 stably transfected cell strain

[3] = target: T3, LILRA1-His (Acro, LI1-H82E8) (human, UniProt O75019 17-461); assay: ELISA, coated protein 1 µg/mL, antibody 10 µg/mL
T3 construct: Bought protein. 'Human' stands at the head of the list of coated proteins; not shown: His tag

[4] = target: T4, LILRB5-His (Acro, CDC-H5220) (human, UniProt O75023 24-458, limits assumed); assay: ELISA, coated protein 1 µg/mL, antibody 10 µg/mL
T4 construct: Bought protein. 'Human' stands at the head of the list of coated proteins; not shown: His tag

[5] = target: T5, LILRA5-His (Acro, LI5-H82E1) (human, UniProt A6NI73 42-268); assay: ELISA, coated protein 1 µg/mL, antibody 10 µg/mL
T5 construct: Bought protein. 'Human' stands at the head of the list of coated proteins; not shown: His tag

[6] = target: T6, LILRA3-His (Acro, LI3-H82E0) (human, UniProt Q8N6C8 24-439); assay: ELISA, coated protein 1 µg/mL, antibody 10 µg/mL
T6 construct: Bought protein. 'Human' stands at the head of the list of coated proteins; not shown: His tag

[7] = target: T7, LILRA6-His (Acro, LI6-H82E2) (human, UniProt Q6PI73 24-447); assay: ELISA, coated protein 1 µg/mL, antibody 10 µg/mL
T7 construct: Bought protein. 'Human' stands at the head of the list of coated proteins; not shown: His tag

[8] = target: T8, His-tagged ILT3 protein extracellular domain: ILT3-His (human, UniProt Q8NHJ6 22-259); assay: ELISA, coated protein 1 µg/mL, antibody 10 µg/mL
T8 construct: The entry is the whole construct, with the His tag

[9] = target: T9, LILRA4-His (SinoBiological, 16058-H08H) (human, UniProt P59901 24-446); assay: ELISA, coated protein 1 µg/mL, antibody 10 µg/mL
T9 construct: Bought protein. 'Human' stands at the head of the list of coated proteins; not shown: His tag

[10] = target: T10, LILRA2-His (Acro, LI2-H82E9) (human, UniProt Q8N149 24-449); assay: ELISA, coated protein 1 µg/mL, antibody 10 µg/mL
T10 construct: Bought protein. 'Human' stands at the head of the list of coated proteins; not shown: His tag

[11] = target: T11, His-tagged ILT2 protein extracellular domain: ILT2-His (human, UniProt Q8NHL6 24-461); assay: ELISA, coated protein 1 µg/mL, antibody 10 µg/mL
T11 construct: The entry is the whole construct, with the His tag; also called human ILT2 protein

[12] = target: T1, His-tagged ILT4 protein extracellular …; assay: ELISA, coated protein 1 µg/mL, antibody 10 µg/mL
[13] = target: T3, LILRA1-His (Acro, LI1-H82E8); assay: ELISA, coated protein 1 µg/mL
[14] = target: T4, LILRB5-His (Acro, CDC-H5220); assay: ELISA, coated protein 1 µg/mL
[15] = target: T5, LILRA5-His (Acro, LI5-H82E1); assay: ELISA, coated protein 1 µg/mL
[16] = target: T6, LILRA3-His (Acro, LI3-H82E0); assay: ELISA, coated protein 1 µg/mL
[17] = target: T7, LILRA6-His (Acro, LI6-H82E2); assay: ELISA, coated protein 1 µg/mL
[18] = target: T8, His-tagged ILT3 protein extracellular …; assay: ELISA, coated protein 1 µg/mL
[19] = target: T9, LILRA4-His (SinoBiological, 16058-H08H); assay: ELISA, coated protein 1 µg/mL
[20] = target: T10, LILRA2-His (Acro, LI2-H82E9); assay: ELISA, coated protein 1 µg/mL
[21] = target: T11, His-tagged ILT2 protein extracellular …; assay: ELISA, coated protein 1 µg/mL
[22] = target: T2, full-length human ILT4 protein …; assay: flow cytometry competition on CHO-S/ILT4 cells; competitor CF647-labelled HLA-G tetramer; Assay 3
[23] = target: T2, full-length human ILT4 protein …; assay: flow cytometry competition on CHO-S/ILT4 cells; competitor CF647-labelled HLA-G tetramer; Assay 4
[24] = target: T1, His-tagged ILT4 protein extracellular …; assay: ELISA, coated ILT4-His 1 µg/mL; Assay 1
[25] = target: T1, His-tagged ILT4 protein extracellular …; assay: ELISA, coated ILT4-His 1 µg/mL; Assay 3

T7 sequence (Q6PI73 24-447 limits assumed): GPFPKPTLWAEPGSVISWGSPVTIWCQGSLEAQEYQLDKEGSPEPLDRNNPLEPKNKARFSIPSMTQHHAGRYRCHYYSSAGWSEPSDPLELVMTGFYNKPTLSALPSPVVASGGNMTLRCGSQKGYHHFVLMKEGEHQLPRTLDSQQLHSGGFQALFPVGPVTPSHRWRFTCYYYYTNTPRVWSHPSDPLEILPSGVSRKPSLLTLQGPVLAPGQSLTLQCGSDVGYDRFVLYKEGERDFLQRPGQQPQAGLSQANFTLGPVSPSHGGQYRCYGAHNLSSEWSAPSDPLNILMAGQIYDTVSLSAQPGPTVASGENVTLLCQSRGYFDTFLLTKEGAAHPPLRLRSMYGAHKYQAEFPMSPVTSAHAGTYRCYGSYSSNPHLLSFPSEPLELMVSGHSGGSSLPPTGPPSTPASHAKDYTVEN
T5 sequence (A6NI73 42-268 limits assumed): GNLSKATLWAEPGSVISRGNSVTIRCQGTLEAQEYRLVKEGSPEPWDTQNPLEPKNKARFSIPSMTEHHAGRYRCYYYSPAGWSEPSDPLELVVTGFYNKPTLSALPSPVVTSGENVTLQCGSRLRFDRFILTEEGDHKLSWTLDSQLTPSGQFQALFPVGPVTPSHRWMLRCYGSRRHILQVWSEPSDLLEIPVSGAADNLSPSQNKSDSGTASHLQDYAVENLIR
T1 sequence (Q8N423 other isoform, or with tags, fused parts or gaps limits assumed): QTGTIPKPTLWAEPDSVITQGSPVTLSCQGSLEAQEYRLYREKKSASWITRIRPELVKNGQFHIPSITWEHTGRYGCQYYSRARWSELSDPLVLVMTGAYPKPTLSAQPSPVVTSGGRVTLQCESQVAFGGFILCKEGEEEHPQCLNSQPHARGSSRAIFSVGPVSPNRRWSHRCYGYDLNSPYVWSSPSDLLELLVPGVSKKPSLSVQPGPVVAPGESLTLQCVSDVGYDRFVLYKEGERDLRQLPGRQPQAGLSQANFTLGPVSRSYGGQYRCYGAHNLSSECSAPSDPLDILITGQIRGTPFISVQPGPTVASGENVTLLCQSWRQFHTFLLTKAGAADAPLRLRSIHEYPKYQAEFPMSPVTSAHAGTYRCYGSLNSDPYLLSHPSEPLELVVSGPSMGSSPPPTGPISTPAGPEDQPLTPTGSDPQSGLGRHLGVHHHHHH
T11 sequence (Q8NHL6 other isoform, or with tags, fused parts or gaps): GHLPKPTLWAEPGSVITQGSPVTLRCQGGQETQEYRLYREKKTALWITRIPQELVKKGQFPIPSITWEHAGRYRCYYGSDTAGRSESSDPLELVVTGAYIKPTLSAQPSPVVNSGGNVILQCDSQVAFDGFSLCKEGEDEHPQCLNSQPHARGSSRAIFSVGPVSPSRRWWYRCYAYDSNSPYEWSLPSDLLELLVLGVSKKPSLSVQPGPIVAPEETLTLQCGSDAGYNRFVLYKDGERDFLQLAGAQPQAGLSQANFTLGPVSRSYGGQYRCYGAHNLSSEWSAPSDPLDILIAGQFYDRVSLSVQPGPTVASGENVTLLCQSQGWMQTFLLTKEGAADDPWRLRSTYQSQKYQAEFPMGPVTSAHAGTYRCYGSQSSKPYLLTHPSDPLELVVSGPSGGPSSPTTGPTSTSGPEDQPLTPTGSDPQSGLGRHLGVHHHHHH
T2 sequence (Q8N423 other isoform, or with tags, fused parts or gaps limits assumed): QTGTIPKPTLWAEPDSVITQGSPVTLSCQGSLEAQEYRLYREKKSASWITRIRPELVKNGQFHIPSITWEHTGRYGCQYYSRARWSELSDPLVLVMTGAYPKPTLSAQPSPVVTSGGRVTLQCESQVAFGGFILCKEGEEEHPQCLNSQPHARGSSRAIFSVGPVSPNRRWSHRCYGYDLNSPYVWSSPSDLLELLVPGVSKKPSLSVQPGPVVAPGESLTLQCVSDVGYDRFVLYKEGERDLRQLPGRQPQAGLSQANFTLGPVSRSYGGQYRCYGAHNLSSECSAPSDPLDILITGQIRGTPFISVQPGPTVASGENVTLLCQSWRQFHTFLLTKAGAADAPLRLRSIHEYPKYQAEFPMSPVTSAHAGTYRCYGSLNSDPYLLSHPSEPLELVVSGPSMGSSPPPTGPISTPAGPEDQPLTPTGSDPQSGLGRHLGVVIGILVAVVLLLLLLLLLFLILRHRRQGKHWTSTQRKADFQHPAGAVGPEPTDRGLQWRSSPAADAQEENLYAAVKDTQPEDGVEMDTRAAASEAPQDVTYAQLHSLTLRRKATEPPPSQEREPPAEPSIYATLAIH
T4 sequence (O75023 24-458 limits assumed): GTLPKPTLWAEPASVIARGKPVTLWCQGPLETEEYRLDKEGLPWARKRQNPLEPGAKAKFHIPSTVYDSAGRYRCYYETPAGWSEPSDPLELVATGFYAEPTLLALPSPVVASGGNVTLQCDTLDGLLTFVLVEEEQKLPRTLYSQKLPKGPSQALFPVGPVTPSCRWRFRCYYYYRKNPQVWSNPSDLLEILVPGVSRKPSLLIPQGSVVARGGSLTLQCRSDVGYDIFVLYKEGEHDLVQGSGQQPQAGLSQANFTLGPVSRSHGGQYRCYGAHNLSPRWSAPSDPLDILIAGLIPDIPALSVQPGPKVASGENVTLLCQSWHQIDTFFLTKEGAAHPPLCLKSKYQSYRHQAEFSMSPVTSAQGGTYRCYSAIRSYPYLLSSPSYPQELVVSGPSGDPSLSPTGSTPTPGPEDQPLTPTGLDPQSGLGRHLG
T6 sequence (Q8N6C8 24-439 limits assumed): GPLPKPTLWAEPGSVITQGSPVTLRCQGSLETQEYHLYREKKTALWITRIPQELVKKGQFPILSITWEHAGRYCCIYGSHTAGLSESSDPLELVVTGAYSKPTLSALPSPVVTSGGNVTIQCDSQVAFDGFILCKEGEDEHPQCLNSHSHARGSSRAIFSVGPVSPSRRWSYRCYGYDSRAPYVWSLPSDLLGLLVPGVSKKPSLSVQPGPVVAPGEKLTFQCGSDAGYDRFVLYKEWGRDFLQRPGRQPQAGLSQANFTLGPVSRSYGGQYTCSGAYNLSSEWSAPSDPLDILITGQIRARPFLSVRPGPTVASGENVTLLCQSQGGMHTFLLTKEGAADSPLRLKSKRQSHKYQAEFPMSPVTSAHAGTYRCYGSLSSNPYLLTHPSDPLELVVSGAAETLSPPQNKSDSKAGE
T3 sequence (O75019 17-461 limits assumed): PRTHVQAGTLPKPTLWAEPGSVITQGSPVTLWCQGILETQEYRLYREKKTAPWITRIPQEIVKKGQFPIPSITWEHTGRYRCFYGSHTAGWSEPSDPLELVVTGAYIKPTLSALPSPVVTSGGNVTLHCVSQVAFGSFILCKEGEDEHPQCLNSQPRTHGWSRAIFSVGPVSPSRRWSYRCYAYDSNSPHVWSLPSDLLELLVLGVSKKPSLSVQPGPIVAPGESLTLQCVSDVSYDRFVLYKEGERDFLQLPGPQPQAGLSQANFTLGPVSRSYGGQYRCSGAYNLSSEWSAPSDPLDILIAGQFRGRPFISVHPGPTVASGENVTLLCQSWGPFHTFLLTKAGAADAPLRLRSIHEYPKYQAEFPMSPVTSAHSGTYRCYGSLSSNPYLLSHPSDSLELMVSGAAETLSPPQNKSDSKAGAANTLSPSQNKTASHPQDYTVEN
T10 sequence (Q8N149 24-449 limits assumed): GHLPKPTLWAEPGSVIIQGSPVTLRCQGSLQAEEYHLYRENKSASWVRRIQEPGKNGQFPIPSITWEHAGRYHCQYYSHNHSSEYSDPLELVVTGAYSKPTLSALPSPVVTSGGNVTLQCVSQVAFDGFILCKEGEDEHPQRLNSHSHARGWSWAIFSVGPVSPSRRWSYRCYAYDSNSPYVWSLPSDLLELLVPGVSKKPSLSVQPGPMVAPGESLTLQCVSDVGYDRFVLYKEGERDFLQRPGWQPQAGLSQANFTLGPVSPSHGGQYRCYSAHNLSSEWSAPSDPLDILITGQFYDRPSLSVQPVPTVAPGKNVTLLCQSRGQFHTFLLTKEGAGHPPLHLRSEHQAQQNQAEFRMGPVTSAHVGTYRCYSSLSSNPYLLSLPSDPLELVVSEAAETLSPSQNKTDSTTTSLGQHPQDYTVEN
T9 sequence (P59901 24-446 limits assumed): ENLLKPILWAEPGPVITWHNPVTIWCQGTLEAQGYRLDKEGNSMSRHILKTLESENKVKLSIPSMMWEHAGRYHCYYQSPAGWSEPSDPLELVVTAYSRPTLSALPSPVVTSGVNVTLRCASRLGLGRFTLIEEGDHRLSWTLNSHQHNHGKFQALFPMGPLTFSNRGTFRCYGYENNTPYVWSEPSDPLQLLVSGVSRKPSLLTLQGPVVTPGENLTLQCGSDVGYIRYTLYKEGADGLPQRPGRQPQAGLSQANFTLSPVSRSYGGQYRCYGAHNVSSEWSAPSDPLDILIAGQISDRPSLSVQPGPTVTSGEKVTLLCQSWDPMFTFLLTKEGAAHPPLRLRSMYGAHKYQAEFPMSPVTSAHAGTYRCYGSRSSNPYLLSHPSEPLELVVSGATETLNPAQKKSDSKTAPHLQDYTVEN

Row | Binder | Kd [1] | koff [1] | kon [1] | absorbance at 450 nm [3] | absorbance at 450 nm [4] | absorbance at 450 nm [5] | absorbance at 450 nm [6] | absorbance at 450 nm [7] | absorbance at 450 nm [8] | absorbance at 450 nm [9] | absorbance at 450 nm [10] | absorbance at 450 nm [11] | absorbance at 450 nm [12] | binding result [13] | binding result [14] | binding result [15] | binding result [16] | binding result [17] | binding result [18] | binding result [19] | further results
1 | B1 | 0.109 nM | 0.000109 s⁻¹ | 999000 M⁻¹ s⁻¹ | 0.0457 absorbance at 450 nm | 0.0533 absorbance at 450 nm | 0.0441 absorbance at 450 nm | 0.0461 absorbance at 450 nm | 0.0449 absorbance at 450 nm | 0.0564 absorbance at 450 nm | 0.0674 absorbance at 450 nm | 0.0759 absorbance at 450 nm | 0.0541 absorbance at 450 nm | 1.77 absorbance at 450 nm | no binding (tested: 10 µg/mL) | no binding (tested: 10 µg/mL) | no binding (tested: 10 µg/mL) | no binding (tested: 10 µg/mL) | no binding (tested: 10 µg/mL) | no binding (tested: 10 µg/mL) | no binding (tested: 10 µg/mL) | IC50 [2]: 0.085 µg/mL; binding result [20]: no binding (tested: 10 µg/mL); binding result [21]: no binding (tested: 10 µg/mL)
2 | B2 | 0.0543 nM | 6.58e-05 s⁻¹ | 1.21e+06 M⁻¹ s⁻¹ | 0.0535 absorbance at 450 nm | 0.0563 absorbance at 450 nm | 0.0598 absorbance at 450 nm | 0.0613 absorbance at 450 nm | 0.0606 absorbance at 450 nm | 0.149 absorbance at 450 nm | 0.0605 absorbance at 450 nm | 0.0565 absorbance at 450 nm | 0.0621 absorbance at 450 nm | 2.69 absorbance at 450 nm | no binding (tested: 10 µg/mL) | no binding (tested: 10 µg/mL) | no binding (tested: 10 µg/mL) | no binding (tested: 10 µg/mL) | no binding (tested: 10 µg/mL) | no binding (tested: 10 µg/mL) | no binding (tested: 10 µg/mL) | IC50 [22]: 0.072 µg/mL; binding result [20]: no binding (tested: 10 µg/mL); binding result [21]: no binding (tested: 10 µg/mL)
3 | B3 | 0.839 nM | 0.000186 s⁻¹ | 222000 M⁻¹ s⁻¹ | 0.0483 absorbance at 450 nm | 0.0489 absorbance at 450 nm | 0.0467 absorbance at 450 nm | 0.0467 absorbance at 450 nm | 0.0461 absorbance at 450 nm | 0.063 absorbance at 450 nm | 0.0504 absorbance at 450 nm | 0.0516 absorbance at 450 nm | 0.0569 absorbance at 450 nm | 0.954 absorbance at 450 nm | no binding (tested: 10 µg/mL) | no binding (tested: 10 µg/mL) | no binding (tested: 10 µg/mL) | no binding (tested: 10 µg/mL) | no binding (tested: 10 µg/mL) | no binding (tested: 10 µg/mL) | no binding (tested: 10 µg/mL) | binding result [20]: no binding (tested: 10 µg/mL); binding result [21]: no binding (tested: 10 µg/mL)
4 | B4 | 0.0433 nM | 8.78e-05 s⁻¹ | 2.03e+06 M⁻¹ s⁻¹ | 0.0469 absorbance at 450 nm | 0.0663 absorbance at 450 nm | 0.0459 absorbance at 450 nm | 0.0468 absorbance at 450 nm | 0.0453 absorbance at 450 nm | 0.0671 absorbance at 450 nm | 0.0543 absorbance at 450 nm | 0.0448 absorbance at 450 nm | 0.0517 absorbance at 450 nm | 1.87 absorbance at 450 nm | no binding (tested: 10 µg/mL) | no binding (tested: 10 µg/mL) | no binding (tested: 10 µg/mL) | no binding (tested: 10 µg/mL) | no binding (tested: 10 µg/mL) | no binding (tested: 10 µg/mL) | no binding (tested: 10 µg/mL) | IC50 [23]: 0.033 µg/mL; binding result [20]: no binding (tested: 10 µg/mL); binding result [21]: no binding (tested: 10 µg/mL)
5 | B5 | – | – | – | – | – | – | – | – | – | – | – | – | – | – | – | – | – | – | – | – | EC50 [24]: 0.0643 µg/mL
6 | B6 | – | – | – | – | – | – | – | – | – | – | – | – | – | – | – | – | – | – | – | – | EC50 [25]: 0.0292 µg/mL
